Measured values: PMC11374688, “Structural basis for transthiolation intermediates in the ubiquitin pathway” (Nature, 2024)

Target: T1, Schizosaccharomyces pombe Uba1 (lacking the first 12 amino acids) (S. pombe, UniProt O94609 13-1012, active site cysteine thiol linked to the dithioacetal carbon of the Ub(T) Gly76 surrogate)
T1 construct: Full-length Uba1 was used in the transthiolation assays; this molecule also stands for it in the functional rows; also called E1; source: E. coli BL21 (DE3) codon plus, purified (Ni-NTA, Ulp1, SEC, MonoQ)
T1 sequence (looked up): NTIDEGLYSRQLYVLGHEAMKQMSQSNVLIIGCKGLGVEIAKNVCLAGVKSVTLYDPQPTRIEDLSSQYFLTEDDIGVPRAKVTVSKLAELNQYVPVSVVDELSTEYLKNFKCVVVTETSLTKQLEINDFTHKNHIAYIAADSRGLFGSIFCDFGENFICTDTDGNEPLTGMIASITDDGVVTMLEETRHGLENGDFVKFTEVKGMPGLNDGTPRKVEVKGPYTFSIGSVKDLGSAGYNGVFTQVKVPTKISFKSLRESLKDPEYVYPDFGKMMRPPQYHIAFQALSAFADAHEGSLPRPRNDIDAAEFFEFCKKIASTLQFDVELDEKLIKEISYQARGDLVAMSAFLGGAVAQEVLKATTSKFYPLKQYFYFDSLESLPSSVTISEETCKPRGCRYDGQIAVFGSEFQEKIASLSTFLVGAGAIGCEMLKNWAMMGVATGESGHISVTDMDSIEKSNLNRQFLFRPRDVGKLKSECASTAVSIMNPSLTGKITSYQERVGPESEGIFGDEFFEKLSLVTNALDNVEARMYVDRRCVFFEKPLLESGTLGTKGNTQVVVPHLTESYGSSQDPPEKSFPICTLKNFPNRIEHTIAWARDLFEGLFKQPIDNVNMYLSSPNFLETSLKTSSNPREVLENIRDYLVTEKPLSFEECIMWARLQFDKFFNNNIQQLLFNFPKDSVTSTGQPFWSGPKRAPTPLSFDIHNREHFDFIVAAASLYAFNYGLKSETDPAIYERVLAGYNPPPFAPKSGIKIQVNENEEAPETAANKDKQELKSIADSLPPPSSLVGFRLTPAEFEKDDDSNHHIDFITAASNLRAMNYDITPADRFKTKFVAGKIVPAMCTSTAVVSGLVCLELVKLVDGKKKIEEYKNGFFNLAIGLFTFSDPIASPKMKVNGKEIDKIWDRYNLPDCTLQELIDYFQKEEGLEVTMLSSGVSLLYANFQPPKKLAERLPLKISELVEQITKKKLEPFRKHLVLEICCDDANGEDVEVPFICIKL
Test: cryo-EM structure; E1–Ub(T)–E2 (Ub(T) Gly76 surrogate covalently linked to the E1 and E2 active site cysteines) at 3 mg/ml in Tris-HCl pH 7.2, 100 mM NaCl, preincubated 30 min on ice with 5 mM MgCl2, 1 mM ATP and ~0.8 molar equivalents of Ub; 0.05% CHAPSO; doubly and singly loaded complexes resolved from the same sample
Conditions: both partners purified

binding result: binds
B1: S. pombe Ub without tags (natural protein)
chain: not shown
notes: In clusters 3 to 5 of the doubly loaded complex the C terminus of Ub(A) is adenylated (Ub(A)-AMP); also called Ub(A); native Ub; source: E. coli BL21 (DE3) codon plus, purified (as described previously, with additional SEC)
